Measurements from publication PMC3323580.
pKd: −log10 of the molar value.

Tests used:
Experiment in all cases: SPR; C3b (1620 RU), C4b (1518 RU) and C1q (2125 RU) amine-coupled on three flow cells of one CM5 chip; CR1 fragments flowed at 30 µl/min, Biacore T100, 25°C, HBS-EP pH 7.4 (10 mM Hepes, 150 mM saline, 3 mM EDTA, 0.05% polysorbate 20); steady-state fit, one-to-one model; duplicates
[1] = molecular target: C4b, complement-activation fragment of C4
[2] = molecular target: C1q, classical complement pathway protein (UniProt P02745)
[3] = molecular target: C3b, complement-activation fragment of C3

Chain of C1q, classical complement pathway protein (P02745 23-245, chain 1 of 3): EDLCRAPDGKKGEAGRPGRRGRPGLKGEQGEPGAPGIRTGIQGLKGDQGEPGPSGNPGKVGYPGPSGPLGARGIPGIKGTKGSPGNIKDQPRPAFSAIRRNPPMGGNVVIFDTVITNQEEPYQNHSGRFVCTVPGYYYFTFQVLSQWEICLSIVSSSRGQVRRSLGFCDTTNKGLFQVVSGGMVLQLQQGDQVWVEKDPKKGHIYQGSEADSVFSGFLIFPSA
Chain of C1q, classical complement pathway protein (P02746 28-253, chain 2 of 3, further chain): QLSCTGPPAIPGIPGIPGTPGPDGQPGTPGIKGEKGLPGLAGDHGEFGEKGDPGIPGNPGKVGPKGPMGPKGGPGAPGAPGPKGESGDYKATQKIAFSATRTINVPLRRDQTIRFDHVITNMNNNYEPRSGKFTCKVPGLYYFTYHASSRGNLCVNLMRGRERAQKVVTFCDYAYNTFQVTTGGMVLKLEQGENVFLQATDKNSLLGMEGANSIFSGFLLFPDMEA
Chain of C1q, classical complement pathway protein (P02747 29-245, chain 3 of 3, further chain): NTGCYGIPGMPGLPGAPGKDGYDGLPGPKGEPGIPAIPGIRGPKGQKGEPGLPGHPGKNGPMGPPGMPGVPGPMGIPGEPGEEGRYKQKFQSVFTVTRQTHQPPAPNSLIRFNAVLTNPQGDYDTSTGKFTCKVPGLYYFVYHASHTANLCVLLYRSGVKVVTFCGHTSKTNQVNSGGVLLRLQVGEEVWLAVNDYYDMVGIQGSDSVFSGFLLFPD

Substance	pKd [1]	pKd [2]	pKd [3]
CR1 15–25(KG), complement receptor-type 1 CCPs 15–25, Lys1590/Gly1601 variant (domain or fragment)	5.28	5.26	5.98
CR1 1–3 (site 1), complement receptor-type 1 CCPs 1–3 (domain or fragment)	4.95	4.51	4.42
CR1 15–25(KR), complement receptor-type 1 CCPs 15–25, Lys1590/Arg1601 variant (domain or fragment)	5.29	5.24	6.00
CR1 15–25(ER), complement receptor-type 1 CCPs 15–25, Glu1590/Arg1601 variant (domain or fragment)	5.28	5.24	5.96

Second part, the substance after the results:

pKd [1]	pKd [2]	pKd [3]	Substance
5.49	6.09	5.97	CR1 15–17 (site 2), complement receptor-type 1 CCPs 15–17 (domain or fragment)
5.30	5.29	6.10	CR1 15–25(EG), complement receptor-type 1 CCPs 15–25, Glu1590/Gly1601 variant (domain or fragment)
6.04	–	6.28	soluble CR1 (sCR1), full-length ectodomain of complement receptor-type 1 (from UniProt P17927 42-1971)
